# Biological target: Type 4 LDH (BL105A_0985), aromatic lactate dehydrogenase (ALDH) of B. longum ssp. longum 105-A (Bifidobacterium longum ssp. longum 105-A) (UniProt Q8G593)
# Test: SEC; native molecular mass of the purified recombinant enzyme estimated by size exclusion chromatography (Supplementary Fig. 7b); dimer of the 33.9 kDa chain
substance,measurement,value
"Type 4 LDH (BL105A_0985), aromatic lactate dehydrogenase (ALDH) of B. longum ssp. longum 105-A (from UniProt Q8G593 1-545) (enzyme)",stoichiometry N,2
